Experimental data: patent US20240384250A1 (UAB RESEARCH FOUNDATION, published 2024)

T1: recombinant FGF23 protein (species not stated for the assay)
T1 construct: also called fibroblast growth factor 23
T1 sequence (Q9GZV9 25-251, species assumed, looked up): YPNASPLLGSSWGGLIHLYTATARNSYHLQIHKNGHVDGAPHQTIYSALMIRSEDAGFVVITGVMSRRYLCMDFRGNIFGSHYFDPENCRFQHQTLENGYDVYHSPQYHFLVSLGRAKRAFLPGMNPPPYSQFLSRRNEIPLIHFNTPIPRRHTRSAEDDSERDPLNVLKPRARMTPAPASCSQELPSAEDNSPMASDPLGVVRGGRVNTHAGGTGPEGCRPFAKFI

T2: Fc-tagged human FGFR4 ectodomain (human, UniProt P22455 22-369)
T2 construct: extracellular domain; Bought; also called Fc-FGFR4; not shown: Fc tag
T2 sequence (looked up): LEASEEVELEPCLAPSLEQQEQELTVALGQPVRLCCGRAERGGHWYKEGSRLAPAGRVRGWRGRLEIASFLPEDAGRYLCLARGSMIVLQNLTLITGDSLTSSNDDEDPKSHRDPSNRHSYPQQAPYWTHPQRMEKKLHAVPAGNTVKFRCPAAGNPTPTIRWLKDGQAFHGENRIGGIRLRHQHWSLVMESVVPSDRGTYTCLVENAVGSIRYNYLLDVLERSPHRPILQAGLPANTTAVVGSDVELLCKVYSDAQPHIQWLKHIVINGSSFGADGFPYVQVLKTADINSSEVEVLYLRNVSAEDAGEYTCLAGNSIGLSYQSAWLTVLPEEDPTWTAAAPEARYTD


Key:
[1] = target: T1, recombinant FGF23 protein (species not …); test: plate assay: 100 ng FGF23 coated, 400 ng purified FLAG-tagged sKL-N694Q or wildtype, anti-FLAG-HRP (FIG. 25E)
Protocol: Plates were coated with 100 ng of FGF23 or 200 ng of FGFR1c and incubated with 400 ng of purified FLAG-tagged wildtype sKL or sKL-N694Q.

[2] = target: T2, Fc-tagged human FGFR4 ectodomain; test: pull-down: Fc-FGFR on protein A/G beads, then FGF21 with PBS, FLAG-sKL or heparin; Western blot with anti-FGF21
Protocol: To study the interaction between Fc-tagged FGFR isoforms (Fc-FGFR), FGF isoforms, and sKL, immunoprecipitation studies were conducted. Protein A beads (6501, BioVision) and protein G beads (6511, BioVision) were used at 25 μl of a 50% stock slurry per sample in a total bead volume of 50 μl. Beads were washed 5× in activity buffer (50 mM Tris [pH 7.4], 200 mM NaCl, 0.01% Tween 20). Bead spin-down assays were all performed for 2 minutes at 5000 g. Beads were resuspended in 1 ml of activity buffer in a 1.5-ml snap cap tube. One microgram of Fc-FGFR1 to 4 was incubated with the beads for 1 hour on a bead rotator. Control samples were incubated with 2 μg of anti-FGF antibody instead of Fc-FGFR. Beads were then pelleted at 5000 g for 2 minutes and washed 5× with activity buffer. Beads were resuspended and incubated with different combinations of 500 ng of FGF, 1 μg of sKL, 1.6 United States Pharmacopeia (USP) units of heparin, or phosphate-buffered saline (PBS). Beads were incubated for 1 hour on a tube rotator, and beads were pelleted and washed as before. One hundred microliters of 1× Laemmli sample buffer (1610737, Bio-Rad) with 1.42 M 2-mercaptoethanol was added, and samples were boiled for 5 minutes. Samples were analyzed using SDS-PAGE and Western blotting.

fold increase in FGF23 binding against the wildtype protein [1] [fold]	Binder	binding result [2]
3	FLAG-tagged sKL-N694Q (receptor, Human assignment as for m24; Tested in HEK293 media and as protein purified from supernatants; also called N6940 and sKL-N6940; not shown: C-terminal FLAG/His tag) EPGDGAQTWARFSRPPAPEAAGLFQGTFPDGFLWAVGSAAYQTEGGWQQHGKGASIWDTFTHHPLAPPGDSRNASLPLGAPSPLQPATGDVASDSYNNVFRDTEALRELGVTHYRFSISWARVLPNGSAGVPNREGLRYYRRLLERLRELGVQPVVTLYHWDLPQRLQDAYGGWANRALADHFRDYAELCFRHFGGQVKYWITIDNPYVVAWHGYATGRLAPGIRGSPRLGYLVAHNLLLAHAKVWHLYNTSFRPTQGGQVSIALSSHWINPRRMTDHSIKECQKSLDFVLGWFAKPVFIDGDYPESMKNNLSSILPDFTESEKKFIKGTADFFALCFGPTLSFQLLDPHMKFRQLESPNLRQLLSWIDLEFNHPQIFIVENGWFVSGTTKRDDAKYMYYLKKFIMETLKAIKLDGVDVIGYTAWSLMDGFEWHRGYSIRRGLFYVDFLSQDKMLLPKSSALFYQKLIEKNGFPPLPENQPLEGTFPCDFAWGVVDNYIQVDTTLSQFTDLNVYLWDVHHSKRLIKVDGVVTKKRKSYCVDFAAIQPQIALLQEMHVTHFRFSLDWALILPLGNQSQVNHTILQYYRCMASELVRVNITPVVALWQPMAPNQGLPRLLARQGAWENPYTALAFAEYARLCFQELGHHVKLWITMNEPYTRQMTYSAGHNLLKAHALAWHVYNEKFRHAQNGKISIALQADWIEPACPFSQKDKEVAERVLEFDIGWLAEPIFGSGDYPWVMRDWLNQRNNFLLPYFTEDEKKLIQGTFDFLALSHYTTILVDSEKEDPIKYNDYLEVQEMTDITWLNSPSQVAVVPWGLRKVLNWLKFKYGDLPMYIISNGIDDGLHAEDDQLRVYYMQNYINEALKAHILDGINLCGYFAYSFNDRTAPRFGLYRYAADQFEPKASMKHYRKIIDSNGFPGPETLERFCPEEFTVCTECSFFHTRKS	
	human FGF21 (ligand, UniProt Q9NSA1 29-209, looked up) HPIPDSSPLLQFGGQVRQRYLYTDDAQQTEAHLEIREDGTVGGAADQSPESLLQLKALKPGVIQILGVKTSRFLCQRPDGALYGSLHFDPEACSFRELLLEDGYNVYQSEAHGLPLHLPGNKSPHRDPAPRGPARFLPLPGLPPALPEPPGILAPQPPDVGSSDPLSMVGPSQGRSPSYAS	no binding (tested: 500 ng FGF21 (Methods paragraph 182))
